Results reported in article PMC10687086, “Illuminating the mechanism and allosteric behavior of NanoLuc luciferase” (Nature Communications, 2023).
Numbering of substitutions follows the chain as printed. Names and notes keep the numbering of the source.

B1: NanoLuc luciferase (NLuc) (Oplophorus gracilirostris; A31E/A60N/A81I/F95D/I117V/K70R/L54V/L99Q/M102K/N193R/P142E/Q151K/Q38R/Q45L/V71I/Y121A/Y165I) (protein)
chain: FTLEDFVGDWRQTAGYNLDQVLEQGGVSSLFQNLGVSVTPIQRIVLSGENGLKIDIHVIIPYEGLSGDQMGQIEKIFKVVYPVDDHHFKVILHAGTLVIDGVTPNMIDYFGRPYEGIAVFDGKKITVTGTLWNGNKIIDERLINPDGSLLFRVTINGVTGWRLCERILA
notes: engineered 19 kDa catalytic subunit of OLuc (16 residues mutated); monomer in solution, homotetramer in crystals
B2: NanoLuc luciferase (NLuc) (Oplophorus gracilirostris; A31E/A60N/A81I/D36R/F95D/H84A/I117V/K116R/K70R/L54V/L99Q/M102K/N193R/P142E/Q151K/Q38R/Q45L/V71I/Y165I) (protein)
chain: B1 chain with D9R, H57A, K89R, A94Y
notes: as for B1
B3: NanoLuc luciferase (NLuc) (Oplophorus gracilirostris; A31E/A60N/A81I/D36R/F95D/I117V/K116R/K70R/L54V/L99Q/M102K/N193R/P142E/Q151K/Q38R/Q45L/V71I/Y165I) (protein)
chain: B1 chain with D9R, K89R, A94Y
notes: as for B1

Tests used:
Assay in all cases: luminescence, global fit of progress curves
Format in all cases: biochemical, Oplophorus gracilirostris
Settings in all cases: 100 mM potassium phosphate pH 7.50, 37 °C, co-substrate O2, pH 7.5
[1] = substrate: O=c1c(Cc2ccco2)nc2c(Cc3ccccc3)[nH]c(-c3ccccc3)cn1-2
Excerpt: (§1) luminescence, global fit of progress curves on NanoLuc luciferase (NLuc)

[2] = substrate: Oc1ccc(Cc2nc3c(Cc4ccccc4)nc(-c4ccc(O)cc4)cn3c2O)cc1
Excerpt: as §1

[3] = substrate: O=c1c(Cc2ccco2)nc2c(Cc3ccccc3)[nH]c(-c3ccccc3)cn1-2; remark: listed apart in the source
[4] = substrate: Oc1ccc(Cc2nc3c(Cc4ccccc4)nc(-c4ccc(O)cc4)cn3c2O)cc1; remark: listed apart in the source

Row | Protein | Km [1] | kcat [1] | kcat/Km [1] | Km [2] | kcat [2] | kcat/Km [2] | Km [3] | kcat [3] | kcat/Km [3] | Km [4] | kcat [4] | kcat/Km [4]
1 | B1 | 1.29 ± 0.02 µM | 0.519 ± 0.007 s⁻¹ | 402000 ± 6000 M⁻¹ s⁻¹ | 3.74 ± 0.09 µM | 0.225 ± 0.004 s⁻¹ | 60000 ± 1000 M⁻¹ s⁻¹ | – | – | – | – | – | –
2 | B2 | – | – | – | 0.77 ± 0.07 µM | 40 ± 4 s⁻¹ | 7e+07 ± 7e+06 M⁻¹ s⁻¹ | – | – | – | – | – | –
3 | B3 | – | – | – | – | – | – | 0.157 ± 0.009 µM | 5.2 ± 0.1 s⁻¹ | 3.3e+07 ± 2e+06 M⁻¹ s⁻¹ | 0.46 ± 0.01 µM | 16.8 ± 0.6 s⁻¹ | 3.7e+07 ± 1e+06 M⁻¹ s⁻¹
